B1: CPEB3 Ribozyme (parent)
chain: UAACAGGGGGCCACAGCAGAAGCGUUCACGUCGCAGCCCCUGUCAGAUUCUGGUGAAUCUGCGAAUUCUGCUGUAUAUCUC

Variants of: B1
Test: self-cleavage, relative activity (ratio to wild type); higher = more cleavage; in vitro, sequencing
Procedure, shortened: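 Barcoded CPEB3 ribozyme mutants, produced by rounds of error-prone PCR, self-cleaved while being transcribed with T7 RNA polymerase for 5 hours at 37°C and during a subsequent 15 min DNase I step before EDTA was added. Sequencing of template-switched cDNA on Illumina gave cleaved and total reads, and DNA sequencing assigned barcodes to variants. Each variant's relative activity is its cleaved/total read fraction divided by the unmutated ribozyme's fraction, averaged across three batches. A variant needed a minimum of 5 reads.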
Variant A2G C32U has a self-cleavage of 0.3.
In the case of A2G C32A, the self-cleavage is reported as 0.1.
Work on A3C G33C yielded a self-cleavage of 0.35.
In the case of A2U C50U, the self-cleavage is reported as 0.79.
With A2G G46A the self-cleavage was 0.28.
A2G G46U showed a self-cleavage of 0.3.
A2G C27U gave a self-cleavage of 0.4.
With A2G C27A the self-cleavage was 0.36.
For A2G C38U, the self-cleavage was 0.68.
In the case of A3G A65U, the self-cleavage is reported as 0.25.
Variant A3G A65G has a self-cleavage of 0.55.
For A3G A57U, the self-cleavage was 0.69.
In the case of A3G A57C, the self-cleavage is reported as 0.49.
With A3G A57G the self-cleavage was 0.86.
A3G C32A gave a self-cleavage of 0.14.
Variant A3G C32G has a self-cleavage of 0.17.
Work on A3G C32U yielded a self-cleavage of 0.45.
In the case of A3C G7U, the self-cleavage is reported as 0.39.
A2U A75G gave a self-cleavage of 1.04.
With A2U A75U the self-cleavage was 1.09.
With A2G G53U the self-cleavage was 0.72.
A2G G53A showed a self-cleavage of 0.66.
In the case of A2U C12U, the self-cleavage is reported as 1.18.
Variant A2U C12G has a self-cleavage of 0.19.
Variant A2G U25C has a self-cleavage of 0.49.
In the case of A2G U25A, the self-cleavage is reported as 0.36.
A2G G22U showed a self-cleavage of 0.07.
With A2G G22A the self-cleavage was 0.22.
In the case of A2U U67A, the self-cleavage is reported as 0.49.
Variant A2U U67C has a self-cleavage of 0.39.
In the case of A2U A28G, the self-cleavage is reported as 0.65.
With A2U A28U the self-cleavage was 0.82.
With A3C G61C the self-cleavage was 0.32.
For A2G U58C, the self-cleavage was 0.25.
Work on A2G C34U yielded a self-cleavage of 0.29.
For A2G C34G, the self-cleavage was 0.1.
A3C A57G showed a self-cleavage of 1.19.
For A2U U58A, the self-cleavage was 0.35.
Work on A2U U58C yielded a self-cleavage of 0.42.
Variant A2G U49A has a self-cleavage of 0.42.
Variant A2G U49C has a self-cleavage of 0.32.
For A3C A64G, the self-cleavage was 1.17.
In the case of A3C U31G, the self-cleavage is reported as 0.93.
A2G U66C showed a self-cleavage of 0.2.
Variant A2G U66G has a self-cleavage of 0.28.
A2G U60C gave a self-cleavage of 0.25.
With A2G U60A the self-cleavage was 0.22.
For A3G A75G, the self-cleavage was 1.
For A3G A75U, the self-cleavage was 1.12.
Work on A3G A75C yielded a self-cleavage of 1.07.
Work on A2G U78A yielded a self-cleavage of 0.75.
Work on A2G U78C yielded a self-cleavage of 0.58.
A2U A57G showed a self-cleavage of 0.83.
With A2U C37A the self-cleavage was 0.16.
For A3C U58A, the self-cleavage was 0.5.
In the case of A3C U58C, the self-cleavage is reported as 0.4.
For A3C U58G, the self-cleavage was 0.25.
Work on A3C A35U yielded a self-cleavage of 0.81.
A3C A35G showed a self-cleavage of 1.21.
In the case of A3G A64U, the self-cleavage is reported as 0.45.
A3G A64G showed a self-cleavage of 0.92.
A2U G36A gave a self-cleavage of 0.29.
For A3C A47G, the self-cleavage was 1.12.
Variant A2U U26C has a self-cleavage of 0.55.
In the case of A2U U26G, the self-cleavage is reported as 0.5.
Work on A2U U26A yielded a self-cleavage of 0.87.
A3C A28G gave a self-cleavage of 1.09.
With A3C A21G the self-cleavage was 0.63.
Work on A2U G42A yielded a self-cleavage of 0.43.
For A3G A21U, the self-cleavage was 0.49.
Work on A3G A21G yielded a self-cleavage of 0.73.
With A3G A45U the self-cleavage was 0.4.
Work on A3G A45G yielded a self-cleavage of 0.78.
In the case of A2U G6A, the self-cleavage is reported as 0.66.
A2U G10U gave a self-cleavage of 0.29.
Work on A2U G10A yielded a self-cleavage of 0.26.
Work on A3G A20U yielded a self-cleavage of 0.41.
Work on A3G A20C yielded a self-cleavage of 0.75.
With A3G A20G the self-cleavage was 0.86.
With A3C U78C the self-cleavage was 1.12.
Work on A3C yielded a self-cleavage of 1.16.
In the case of A3G, the self-cleavage is reported as 1.02.
In the case of A2G U41A, the self-cleavage is reported as 0.42.
A2G U41C gave a self-cleavage of 0.78.
With A2G U41G the self-cleavage was 0.49.
A2U U54A showed a self-cleavage of 1.15.
With A2U U54G the self-cleavage was 0.77.
A2U U54C gave a self-cleavage of 1.13.
Work on A2U A35U yielded a self-cleavage of 0.49.
A2U A35G showed a self-cleavage of 1.19.
In the case of A2U A35C, the self-cleavage is reported as 0.85.
With A3G C27U the self-cleavage was 0.53.
In the case of A3G C27G, the self-cleavage is reported as 0.43.
A3G C27A showed a self-cleavage of 0.45.
Variant A2U A5G has a self-cleavage of 0.71.
Variant A2U A5U has a self-cleavage of 1.09.
For A2G C71U, the self-cleavage was 0.24.
Work on A2U G9A yielded a self-cleavage of 0.15.
Variant A2U G9C has a self-cleavage of 0.45.
For A3G C17U, the self-cleavage was 0.85.
Work on A3G C17G yielded a self-cleavage of 0.55.
A3G C17A showed a self-cleavage of 0.33.
For A2U U76C, the self-cleavage was 1.15.
A2U U76A gave a self-cleavage of 1.14.
A2U C39A gave a self-cleavage of 0.42.
A3G A18U gave a self-cleavage of 0.44.
Work on A3G A18G yielded a self-cleavage of 0.73.
A3G A18C showed a self-cleavage of 0.46.
A2U A64G showed a self-cleavage of 0.83.
Variant A2U A64U has a self-cleavage of 0.28.
A3C C44G gave a self-cleavage of 0.84.
A2U U80C gave a self-cleavage of 1.09.
In the case of A2U U80G, the self-cleavage is reported as 1.06.
For A2U U80A, the self-cleavage was 1.14.
A2U A77G showed a self-cleavage of 1.04.
A3G A5C gave a self-cleavage of 0.71.
Variant A3G A5G has a self-cleavage of 0.76.
A3G A5U showed a self-cleavage of 1.04.
A3G C12A gave a self-cleavage of 1.16.
Variant A3G C12U has a self-cleavage of 1.22.
For A3C U76A, the self-cleavage was 1.
In the case of A3C U26C, the self-cleavage is reported as 0.6.
In the case of A3C U26A, the self-cleavage is reported as 1.2.
Work on A2G C29A yielded a self-cleavage of 0.13.
A2G C29U gave a self-cleavage of 0.24.
Variant A2U U43C has a self-cleavage of 0.47.
In the case of A2U U43A, the self-cleavage is reported as 1.05.
Variant A2U G33U has a self-cleavage of 0.32.
Work on A3C C81G yielded a self-cleavage of 1.19.
For A2U U69A, the self-cleavage was 0.52.
For A2G C68A, the self-cleavage was 0.11.
A3C U41A showed a self-cleavage of 0.24.
With A3C U41G the self-cleavage was 0.56.
A3C U41C gave a self-cleavage of 1.02.
A2U A13U gave a self-cleavage of 1.08.
For A2U A13G, the self-cleavage was 0.84.
A2G U51C showed a self-cleavage of 0.34.
With A2G U51A the self-cleavage was 0.64.
Variant A2G U51G has a self-cleavage of 0.79.
With A3C U69A the self-cleavage was 1.08.
Variant A2G C79U has a self-cleavage of 0.82.
With A2G C79A the self-cleavage was 1.01.
With A2G G33C the self-cleavage was 0.32.
A2G G33U gave a self-cleavage of 0.3.
For A2U A15G, the self-cleavage was 0.8.
With A2U A15U the self-cleavage was 0.41.
A3G A13C showed a self-cleavage of 1.02.
Work on A3G A13U yielded a self-cleavage of 1.02.
For A3G A13G, the self-cleavage was 0.95.
Work on A2U U31A yielded a self-cleavage of 0.48.
In the case of A2U U31C, the self-cleavage is reported as 0.81.
Work on A2U A21G yielded a self-cleavage of 0.56.
A2U A21U gave a self-cleavage of 0.29.
In the case of A3C A18G, the self-cleavage is reported as 0.64.
Work on A3C A18U yielded a self-cleavage of 0.73.
A3C A5C showed a self-cleavage of 1.23.
For A3C A5G, the self-cleavage was 0.62.
For A3C A75G, the self-cleavage was 1.14.
A2U G19A showed a self-cleavage of 0.29.
A3C A56G showed a self-cleavage of 1.12.
Work on A3C A56U yielded a self-cleavage of 0.65.
Variant A2U U41C has a self-cleavage of 1.07.
Work on A2U U41A yielded a self-cleavage of 0.25.
With A3C U67C the self-cleavage was 0.33.
A3G A28C gave a self-cleavage of 0.73.
With A3G A28U the self-cleavage was 0.89.
In the case of A3G A28G, the self-cleavage is reported as 0.72.

Source: the RNAGym collection of RNA variant scans (doi:10.1093/nar/gkz1192)
